Reference: the supplement of paper PMC10724198
± gives the standard deviation of the averaged measurements.

System: Saccharomyces cerevisiae
Assay: protein stability index of tFT-peptide fusion (C-terminal peptide) (PSI (0-1 scale)); higher = more stable (slower turnover)
Conditions: temperature: 30 C
Procedure: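 MPS profiling in S. cerevisiae of the yeast C-terminome library: the last 12 aa of each annotated ORF are fused to the C-terminus of a sfGFP-mCherry timer, after a GGGS linker. Cells are FACS-sorted into 8 mCherry/sfGFP bins and deep-sequenced. PSI runs from 0 (unstable) to 1 (stable); wild type and das1Δ backgrounds, two technical replicates each.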

[1] = genetic background: das1 deletion

Sequence | protein stability index [1] | protein stability index (genetic background: wild type)
GALERKLHIDEN [MAM1 C-terminal 12 aa] | 0.6947 ± 0.0045 | 0.692 ± 0.046
KLRNSNNTRAED [AVO2 C-terminal 12 aa] | 0.67 ± 0.0067 | 0.672 ± 0.011
YGISSSVLKGST [PHO87 C-terminal 12 aa] | 0.7153 ± 0.0032 | 0.676 ± 0.009
SKEFVGSVYLNF [TRL1 C-terminal 12 aa] | 0.679 ± 0.009 | 0.678 ± 0.03
NIKSSTLPGLSI [PFS2 C-terminal 12 aa] | 0.694 ± 0.02 | 0.664 ± 0.029
FTLVGYDKEFSD [ADH6 C-terminal 12 aa] | 0.6911 ± 0.0014 | 0.70114 ± 0.00043
KHPRPFRQEHRC [YLR162W C-terminal 12 aa] | 0.6986 ± 0.0027 | 0.6577 ± 0.0057
GETIRVNYGSTQ [YJR154W C-terminal 12 aa] | 0.685 ± 0.0089 | 0.689 ± 0.039
SEIVDISQLPPG [ILV6 C-terminal 12 aa] | 0.6812 ± 0.0022 | 0.7033 ± 0.0062
IKSVHVDLSLDK [ALD3 C-terminal 12 aa] | 0.717 ± 0.022 | 0.704 ± 0.043
KGFQFGLGLAFL [SAM50 C-terminal 12 aa] | 0.736 ± 0.034 | 0.69 ± 0.019
KEANPIKITPQP [MDL2 C-terminal 12 aa] | 0.682 ± 0.009 | 0.708 ± 0.0083
GGNKQAPGLELG [YMR242W-A C-terminal 12 aa] | 0.6918 ± 0.0046 | 0.702 ± 0.006
SLSSLSNQRCTT [YCR023C C-terminal 12 aa] | 0.709 ± 0.011 | 0.68 ± 0.052
HEYVTINGDYRS [ARG7 C-terminal 12 aa] | 0.679 ± 0.017 | 0.702 ± 0.032
VMQVQCLFFFIL [YJL156W-A C-terminal 12 aa] | 0.556 ± 0.019 | 0.284 ± 0.0037
EQGGEGVQCASQ [YDJ1 C-terminal 12 aa] | 0.686 ± 0.014 | 0.69 ± 0.045
KQIDVFNGPKRV [MIG2 C-terminal 12 aa] | 0.713 ± 0.0091 | 0.7313 ± 0.0019
ILLHLEYAAAYS [STN1 C-terminal 12 aa] | 0.521 ± 0.033 | 0.552 ± 0.02
DDYAQYLDQDSD [MAK21 C-terminal 12 aa] | 0.7147 ± 0.004 | 0.671 ± 0.011
SSSSLYTESPIR [IGO1 C-terminal 12 aa] | 0.7011 ± 0.0054 | 0.717 ± 0.066

Sequence | protein stability index [1] | protein stability index (genetic background: wild type)
DQTRDFGTSMEL [FOB1 C-terminal 12 aa] | 0.706 ± 0.0098 | 0.712 ± 0.0086
EDDEDGSGVEYD [RTT106 C-terminal 12 aa] | 0.694 ± 0.009 | 0.7 ± 0.062
GSLLLGLISFLL [EGT2 C-terminal 12 aa] | 0.669 ± 0.0091 | 0.6486 ± 0.0054
LIGFGNQVSKAL [BUD25 C-terminal 12 aa] | 0.703 ± 0.03 | 0.723 ± 0.027
MTQWLEISILMN [YCL001W-A C-terminal 12 aa] | 0.544 ± 0.05 | 0.319 ± 0.034
FTFGTPIFLQLL [YFR010W-A C-terminal 12 aa] | 0.653 ± 0.025 | 0.579 ± 0.1
NEGSEEEPEIDQ [BDP1 C-terminal 12 aa] | 0.6878 ± 0.0019 | 0.702 ± 0.037
APHVLNDLLLKF [PGA1 C-terminal 12 aa] | 0.7108 ± 0.0037 | 0.666 ± 0.017
GIILRSCWNPRQ [YOL159C-A C-terminal 12 aa] | 0.721 ± 0.019 | 0.69 ± 0.0087
KPLSKPAPDLDY [CWC25 C-terminal 12 aa] | 0.66 ± 0.024 | 0.676 ± 0.0075
SAQDSDIDLQDA [MCM7 C-terminal 12 aa] | 0.695 ± 0.0088 | 0.682 ± 0.031
AIDTLLKMSSSD [SRL3 C-terminal 12 aa] | 0.703 ± 0.03 | 0.674 ± 0.051
NAPRFGVEYQMT [PHO89 C-terminal 12 aa] | 0.72259 ± 0.00055 | 0.67 ± 0.017
TYKRIKQDEKTD [ALG12 C-terminal 12 aa] | 0.7248 ± 0.0072 | 0.707 ± 0.015
ARKFWTEDNNNL [STE2 C-terminal 12 aa] | 0.72 ± 0.023 | 0.691 ± 0.039
EDVDEDTTPFNV [YTP1 C-terminal 12 aa] | 0.7138 ± 0.0053 | 0.684 ± 0.013
ERPQDWFEDIGE [FCY1 C-terminal 12 aa] | 0.7168 ± 0.0043 | 0.686 ± 0.017
FHHTSKTFAFAD [YGR219W C-terminal 12 aa] | 0.696 ± 0.022 | 0.674 ± 0.0088
KNGKVDPLKNFK [DBP9 C-terminal 12 aa] | 0.701 ± 0.015 | 0.684 ± 0.026
ETARNLAEYNGE [SEC72 C-terminal 12 aa] | 0.701 ± 0.013 | 0.728 ± 0.0056
TCEKSKCNCEKC [CRS5 C-terminal 12 aa] | 0.682 ± 0.012 | 0.69 ± 0.082

Sequence | protein stability index [1] | protein stability index (genetic background: wild type)
TIHTEVNIGIKQ [ENA1 C-terminal 12 aa] | 0.7199 ± 0.0013 | 0.736 ± 0.027
KALNEIFMITND [PXR1 C-terminal 12 aa] | 0.723 ± 0.013 | 0.763 ± 0.033
SQPDYKYLFDTQ [YRM1 C-terminal 12 aa] | 0.71 ± 0.027 | 0.623 ± 0.025
PPSPQEELLIEL [VPS27 C-terminal 12 aa] | 0.721 ± 0.017 | 0.7051 ± 0.0024
HPFLLWQGQVFF [YCR022C C-terminal 12 aa] | 0.729 ± 0.012 | 0.6995 ± 0.0021
LLNSRATQDVVC [VMA3 C-terminal 12 aa] | 0.6342 ± 0.0054 | 0.66 ± 0.0053
GEGGHFVIKKIS [DIT1 C-terminal 12 aa] | 0.6854 ± 0.0056 | 0.20324 ± 5.1e-05
MFGKLGRYLYSH [NSG2 C-terminal 12 aa] | 0.75552 ± 0.00052 | 0.211 ± 0.04
IDIPISVRQVTK [BUL1 C-terminal 12 aa] | 0.707 ± 0.0073 | 0.696 ± 0.013
HFASSLVSFLSK [ICT1 C-terminal 12 aa] | 0.727 ± 0.028 | 0.7183 ± 0.0037
RRRASKNAFRGM [ENP2 C-terminal 12 aa] | 0.696 ± 0.02 | 0.692 ± 0.014
KGTCGCGESFMV [ISA1 C-terminal 12 aa] | 0.71 ± 0.0094 | 0.69 ± 0.045
RNVYSTKTRCIE [TDA10 C-terminal 12 aa] | 0.681 ± 0.017 | 0.699 ± 0.023
IQKDSMVHPGKK [VAC7 C-terminal 12 aa] | 0.6694 ± 0.0052 | 0.663 ± 0.034
EVPVNTADRGRL [PMU1 C-terminal 12 aa] | 0.701 ± 0.021 | 0.76 ± 0.071
EGEISKGAENAT [YDR444W C-terminal 12 aa] | 0.676 ± 0.015 | 0.689 ± 0.011
NSISPPPRKGFI [YGL006W-A C-terminal 12 aa] | 0.7177 ± 0.005 | 0.714 ± 0.055
FFFSNSFLPASR [YJL127W-A C-terminal 12 aa] | 0.7317 ± 0.0022 | 0.788 ± 0.11
TATAPRLFDKLK [QCR6 C-terminal 12 aa] | 0.7007 ± 0.007 | 0.662 ± 0.026
